In US20120301468A1, “ANTI-MN ANTIBODIES AND METHODS OF USING SAME” (BAYER HEALTHCARE LLC, priority 2005, published 2012):

B1: 5aa3: anti-MN antibody; CDRs SEQ ID NOS: 81, 83, 85, 104, 105, and 106 (antibody, V domains shown)
VH: QVELVQSGAEVKKPGESLKISCKGSGYSFTGYISWVRQAPGKGLEWMGIIYPGDSYTNYSPSFQGQVTISADKSISTAYLQWSSLKASDTAMYYCARYSGPNWDVMDSWGQGTLVTVSS
VL: DIVLTQPPSVSGAPGQRVTISCSGSSSNIGSYYVNWYQQLPGTAPKLLIYADDKRPSGVPDRFSGSKSGTSASLAITGLQSEDEADYYCQSYDSTKDDSVFGGGTKLTVL
B2: 1aa1 immunoconjugate (conjugate)
VH: QVELVQSGAEVKKPGASVKVSCKASGYTFTTNYMHWVRQAPGQGLEWMGIINPHNGSTSYAQKFQGRVTMTRDTSISTAYMELSSLRSEDTAVYYCARGRYFLMDVWGQGTLVTVSS
VL: DIQMTQSPSSLSASVGDRVTITCRASQNILSYLNWYQQKPGKAPKLLIYAASSLQSGVPSRFSGSGSGTDFTLTISSLQPEDFAVYYCQQYGSVPTFGQGTKVEIK
B3: 1e4: anti-MN monoclonal IgG1; CDRs SEQ ID NOS: 59, 65, 72, 107, 109, and 111 (antibody, V domains shown)
VH: ELVESGGGLVQPGGSLRLSCAASGFTFSNNAMNWVRQAPGKGLEWVSGISYDSSKTYYADSVKGRFTISRDNSKNTLYLQMNSLRAEDTAVYYCARLTYTGAYRWGQGTLVTVSS
VL: DIELTQPPSVSVAPGQTARISCSGDNLGSYYVHWYQQKPGQAPVLVIYDDNNRPSGIPERFSGSNSGNTATLTISGTQAEDEADYYCQSYDFGKVVFGGGTKLTVL
B4: 1E4 immunoconjugate (conjugate)
VH: QVELVESGGGLVQPGGSLRLSCAASGFTFSNNAMNWVRQAPGKGLEWVSGISYDSSKTYYADSVKGRFTISRDNSKNTLYLQMNSLRAEDTAVYYCARLTYTGAYRWGQGTLVTVSS
VL: B3 VL

What was measured:
MN = MN (Homo sapiens, UniProt Q16790); experiment: Immunoprecipitation of biotinylated cell surface proteins; assay type: binding; design: incubated with cell lysates of MN+ (Pc3 mm2) and MN− (DLD-1) cell lines that had been selectively labeled with biotin; endogenous in cells; host or cells: PC-3 mm2 (MN+); DLD-1 as the MN- control; details: biotin-labeled lysates of MN+ (Pc3 mm2) and MN− (DLD-1) cell lines
Experimental: To further explore specificity, various candidate antibodies including the antibody portion of 3ee9/MMAE (3ee9) and the reference antibody G250 were incubated with cell lysates of MN+ (Pc3 mm2) and MN− (DLD-1) cell lines that had been selectively labeled with biotin. Complexes between the antibodies and cellular proteins were immuno-precipitated and the co-precipitated antigens visualized using immunoblots developed with enzyme-linked streptavidin.

[1] = tested on: MN-expressing PC3 mm2 cells; experiment: In vitro cytotoxicity, PC3 mm2
MN+ (PC3 mm2) cells = experiment: FACS cell binding, PC3 mm2 cells; assay type: cell-based, human; details: MN+ cells (PC3 mm2, FIGS. 10b, 10c)
Experimental: (§1) Cells may be assayed for MN expression as a diagnostic tool. Adherent MN-expressing PC-3 mm2 cells and non-MN expressing DLD1 cells were detached from their flasks with 1:10 trypsin/Versene in PBS solution for 5 to 10 minutes. Cells were spun down (1000 rpm, 5 minutes), washed once with ice cold RPMI 10% FBS, and resuspended in ice-cold staining buffer (Ca^+ Mg^+-free PBS, 2% BSA, and 0.05% sodium azide) at 6×10^6 cells/ml. Primary antibody, human anti-MN IgG1, or control human IgG1 antibody at 25 μg/mL were incubated with 6×10^5 cells on ice for 1 hour. The unbound antibody was washed from the cells with the ice-cold staining buffer. The cells were fixed with 2% formaldehyde in PBS for 10 minutes, then washed twice with staining buffer. The cell pellet was resuspended in 100 μl ice cold staining buffer containing anti-human Alexa fluor 488 secondary antibody (final conc. 1:200, Molecular Probes/Invitrogen, Carlsbad, Calif.), and incubated on ice for 1 hour. The unbound antibody was washed from the cells two times with flow buffer (PBS containing 2% BSA), and the cells were resuspended in 1 mL flow buffer. FACS analysis of the resuspended cells was performed on a […] FACS Caliber instrument.

MN-negative DLD cells = experiment: FACS cell binding, DLD cells; assay type: cell-based
Experimental: as §1
The MN antibody G250, a humanized IgG1 antibody, (Wilex) was used as a reference throughout the in vitro studies.

[2] = tested on: adhesion of MaTu cells to MN-coated wells; experiment: Cell adhesion assay; assay type: cell-based, human; details: 100 μg antibody; 5000 MaTu cells
Experimental: Fifty (50) μL of a 1 μg/mL solution of purified MN in PBS was adsorbed onto a non-treated 96-well plate overnight at 4° C. The solution was removed, and the wells rinsed 3× with PBS. The wells were blocked for 1 hour with 200 μL 50% FBS in RPMI1640 media. The wells were then treated with 100 μg 1e4 anti-MN antibody in 1% BSA in PBS, control IgG in 1% BSA in PBS or 1% BSA in PBS. After washing with PBS, 5000 MaTu cells (MN+ cells) were added to the wells and the plate incubated overnight at 37° C. at 5% CO2. The ability of anti-MN antibodies to block adhesion of MaTu cells to MN-coated wells was assessed after washing with PBS.

[3] = tested on: MaTu human mammary carcinoma xenograft; details: MaTu xenograft; 30 mg/kg immunoconjugate; i.v. Q4Dx3
Experimental: Anti-MN antibodies were conjugated to cytotoxic small molecules using protocols that are known in the art (e.g., Liu, et al., Proc. Natl. Acad. Sci. 93:8618-8623, 1996). Human mammary xenograft, MaTu cells were maintained as adherent cultures in RPMI supplemented with 10% FBS. Ncr nude mice (8-12 weeks of age) were inoculated subcutaneously in the right flank with 5×10^6 cells in 0.1 mL of 80% matrigel/20% HBSS. When tumors reached an average size of ˜180 mg (6 days), treatment was initiated. Monoclonal antibodies conjugated to cytotoxic small molecules were administered i.v. once every four days (Q4Dx3) at a dose of 10 mg/kg. […] The length and width of each tumor was measured by using an electronic caliper 2-3 times per week and tumor weights (mg) were calculated based on the formula of [length (mm)×width (mm)^2]/2. […] Tumor growth inhibition (TGI) was calculated as 1−T/C×100, where T=final tumor weights from a treated group, and C=final tumor weights from the control group.
The in vivo anti-tumor effect of 3ee9/MMAE was examined in 6 different human xenograft tumor models. […] The human tumor xenograft models evaluated included the MaTu human mammary carcinoma model, the HT-29 and Colo-205 human colo-rectal carcinoma (CRC) models, PC3MM2 prostate carcinoma model, the HCT-15 multi-drug resistant (P-gp) CRC model, and the MiaPaCa2 human pancreatic model. […]

MN-negative cells (DLD1) = experiment: Antibody internalization (Cellomics), DLD1; assay type: cell-based
MN+ cells (MaTu) = experiment: In vitro cytotoxicity, MaTu
[4] = tested on: MN-expressing cells (PC3 mm2); experiment: Antibody internalization (Cellomics), PC3 mm2; assay type: cell-based, human

| Molecule | co-immunoprecipitated proteins (specificity) (MN) | cytotoxicity [1] | cell binding by FACS (MN+ (PC3 mm2) cells) | cell binding by FACS (MN-negative DLD cells) | inhibition of cell adhesion [2] | anti-tumor effect [3] | internalization (MN-negative cells (DLD1)) | cytotoxicity (MN+ cells (MaTu)) | internalization [4] |
| --- | --- | --- | --- | --- | --- | --- | --- | --- | --- |
| B1 | co-immunoprecipitated several other proteins in addition to MN |  |  |  |  |  |  |  |  |
| B2 |  | selectively cytotoxic for MN+ cells | exhibited binding to MN+ cells | not to MN− cells |  |  |  |  |  |
| B3 |  |  |  |  | inhibits cell adhesion | no effect |  |  |  |
| B4 |  | selectively cytotoxic for MN+ cells | exhibited binding to MN+ cells | not to MN− cells |  | significant anti-tumor effect | not by MN− (DLD1) cells | selectively cytotoxic for MN+ cells | internalized by MN+ cells (PC3 mm2) |
